Results published in patent US20240247068A1 (INDUSTRY FOUNDATION OF CHONNAM NATIONAL UNIVERSITY, published 2024).
Residue numbers refer to the chain shown, from its start.

B1: CRT1 recombinant CRT-monobody (designed binder)
chain: MASVSDVPRDLEVVAATPTSLLISWDAPAVTVRYYRITYGETGGNSPVQEFTVPGSKSTATISGLKPGVDYTITVYAVTGQPMYGQPMYPISINYRTGSHHHHHH
notes: His-tagged protein expressed in E. coli BL21(DE3) from pETh plasmid, purified on Ni-NTA; FG loop: Hep 1; BC and DE loops unchanged
B2: CRT4-R (recombinant CRT-monobody-Rluc8 of CRT4) (designed binder, not shown: large carriers; small tags and cut ends)
chain: MASVSDVPRDLEVVAATPTSLLISWGQPMYGQPMYYYRITYGETGGNSPVQEFTVPGSKSTATISGLKPGVDYTITVYAVTKLGFFKRPISINYRT
notes: detected with anti-His tag antibody
B3: CRT3-R (recombinant CRT-monobody-Rluc8 of CRT3) (designed binder, not shown: large carriers; small tags and cut ends)
chain: MASVSDVPRDLEVVAATPTSLLISWKLGFFKRYYRITYGETGGNSPVQEFTVPGSKSTATISGLKPGVDYTITVYAVTGQPMYGQPMYPISINYRT
notes: as for B2
B4: CRT2 recombinant CRT-monobody (designed binder)
chain: MASVSDVPRDLEVVAATPTSLLISWDAPAVTVRYYRITYGETGGNSPVQEFTVPGSKSTATISGLKPGVDYTITVYAVTKLGFFKRPISINYRTGSHHHHHH
notes: His-tagged protein from E. coli, purified on Ni-NTA; FG loop: Int alpha; BC and DE loops unchanged
B5: CRT3 recombinant CRT-monobody (designed binder)
chain: MASVSDVPRDLEVVAATPTSLLISWKLGFFKRYYRITYGETGGNSPVQEFTVPGSKSTATISGLKPGVDYTITVYAVTGQPMYGQPMYPISINYRTGSHHHHHH
notes: His-tagged protein from E. coli, purified on Ni-NTA
B6: CRT6 recombinant CRT-monobody (designed binder)
chain: B5 chain with Q80R, P81G, M82D, Y83S, G84P, Q85A, P86S, M87S, Y88K
notes: His-tagged protein from E. coli, purified on Ni-NTA; BC loop: Int alpha; DE and FG loops marked '-'
B7: CRT4 recombinant CRT-monobody (designed binder)
chain: MASVSDVPRDLEVVAATPTSLLISWGQPMYGQPMYYYRITYGETGGNSPVQEFTVPGSKSTATISGLKPGVDYTITVYAVTKLGFFKRPISINYRTGSHHHHHH
notes: as for B5
B8: CRT5 recombinant CRT-monobody (designed binder)
chain: MASVSDVPRDLEVVAATPTSLLISWGQPMYGQPMYYYRITYGETGGNSPVQEFTVPGSKSTATISGLKPGVDYTITVYAVTGRGDSPASSKPISINYRTGSHHHHHH
notes: His-tagged protein from E. coli, purified on Ni-NTA; BC loop: Hep 1; DE and FG loops marked '-'

How the values were obtained:
[1] = target: T1, calreticulin (CRT) exposed on the cell membrane of drug-treated CT26 and MC38 cells (UniProt P14211 18-416, limits assumed); assay: confocal microscopy, mitoxantrone-treated CT26 cells, 10 µg/mL monobody, anti-His tag detection
T1 construct: whole, on cells; Target is inferred from cells on which calreticulin exposure was induced by anticancer drugs; cells were fixed with 3% paraformaldehyde; also called calreticulin on the cell surface
T1 sequence (looked up): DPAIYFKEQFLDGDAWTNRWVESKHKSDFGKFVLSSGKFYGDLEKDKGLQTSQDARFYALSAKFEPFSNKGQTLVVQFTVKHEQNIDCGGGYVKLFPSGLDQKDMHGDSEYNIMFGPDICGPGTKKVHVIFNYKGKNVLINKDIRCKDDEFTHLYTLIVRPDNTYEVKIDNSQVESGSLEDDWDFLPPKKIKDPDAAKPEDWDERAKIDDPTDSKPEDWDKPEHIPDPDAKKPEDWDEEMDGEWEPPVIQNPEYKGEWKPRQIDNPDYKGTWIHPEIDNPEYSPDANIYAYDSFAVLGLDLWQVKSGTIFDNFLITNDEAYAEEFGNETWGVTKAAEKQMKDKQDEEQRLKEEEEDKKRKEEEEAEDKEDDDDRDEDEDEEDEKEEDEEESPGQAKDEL
Description: In order to verify the binding force of the purified CRT-monobody to calreticulin, the present inventors observed the degree of binding with a confocal microscope after treating the cancer cells with CRT-monobody. Specifically, CT26 (colon cancer) cells, which are cancer cells, were seeded at 1×10⁵ cells per well in chamber slides (154534PAK, Thermo Fisher Scientific) and cultured overnight in a C02 incubator. Then, each of the cells was treated with mitoxantrone (25 μM), which is an anticancer drug, to induce calreticulin on the surface thereof, treated with gemcitabine (15 μM) as a control group, and cultured for 4 hours, washed with PBS, and reacted with 3% paraformaldehyde for 10 minutes to fix the cells. Then, a block buffer (3% BSA in PBS) was treated for 1 hour to prevent the hard-to-bind antibody, and the CRT-monobody (10 μg/mL) of the present invention was treated in each well and reacted for 1 hour to induce binding to calreticulin. […] In addition, Alexa 555 conjugated WGA-555 (1:2000, 3% BSA in PBS) was treated in order to distinguish cell membranes, DAPI-Glod-antifade was treated, and mounting was performed, and the prepared slides were refrigerated under dark conditions.

[2] = target: T1, calreticulin (CRT) exposed on the cell …; assay: flow cytometry, mitoxantrone- or doxorubicin-treated CT26 and MC38 cells, 5 µg/mL, anti-His tag detection
Excerpt: (§1) The present inventors allowed cancer cells to react with CRT-monobody-Rluc8, and then measured the binding degree in the number of cells in order to more accurately confirm the binding force of CRT-monobody-Rluc8, which was purified according to an embodiment of the present invention, to calreticulin. To this end, CT26, MC38, Hela, and MDA-MB-231 cells were first cultured, and then the expression of calreticulin on the cell surface was induced by the same method (gemcitabine, doxorubicin, and mitoxantrone) as in Example 5. […] Finally, in order to identify cells bound to CRT-monobody, fluorescence signals of the cells were identified using a flow cytometer (BD Bioscience).
(§2) As a result, when the CT26 (colon cancer), MC38 (colon cancer), Hela (uterine cancer), and MDA-MB-231 (breast cancer) cells were not treated with an anticancer drug and when the cells were treated with gemcitabine, no exposure of calreticulin on the cell membrane was confirmed through fluorescence signals for each cell, and there was no signal change after CRT-monobody treatment of the present invention, so that it was confirmed that the CRT-monobody was not bound to the cells.

[3] = target: T2, calreticulin (CRT) exposed on the cell membrane of drug-treated Hela and MDA-MB-231 cells (UniProt P27797 18-417, limits assumed); assay: confocal microscopy, mitoxantrone- or doxorubicin-treated Hela and MDA-MB-231 cells, 10 µg/mL, anti-His tag detection
T2 construct: whole, on cells; Target is inferred from cells on which calreticulin exposure was induced by anticancer drugs; cells were fixed with 3% paraformaldehyde; also called calreticulin on the cell surface
T2 sequence (looked up): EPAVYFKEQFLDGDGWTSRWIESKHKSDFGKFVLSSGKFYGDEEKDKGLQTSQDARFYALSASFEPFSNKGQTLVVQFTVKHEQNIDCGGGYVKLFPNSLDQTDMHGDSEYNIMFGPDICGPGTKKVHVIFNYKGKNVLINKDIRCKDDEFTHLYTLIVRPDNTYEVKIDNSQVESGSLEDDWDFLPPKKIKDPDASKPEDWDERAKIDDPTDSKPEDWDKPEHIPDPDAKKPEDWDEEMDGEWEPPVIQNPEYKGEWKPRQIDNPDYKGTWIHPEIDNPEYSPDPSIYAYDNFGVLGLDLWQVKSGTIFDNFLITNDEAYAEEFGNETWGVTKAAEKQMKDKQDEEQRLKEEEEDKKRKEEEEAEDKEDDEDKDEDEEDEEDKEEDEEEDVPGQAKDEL
Description: In order to verify the binding force of the CRT-monobody-Rluc8 protein to calreticulin, the present inventors observed the degree of binding with a confocal microscope after purifying CRT3-R, CRT4-R, and DGR-R as in Example 3 and treating cancer cells with the CRT-monobody-Rluc8 proteins. Specifically, cancer cells such as CT26 (colon cancer), MC38 (colon cancer), Hela (uterine cancer), and MDA-MB-231 (breast cancer) were seeded at 1×10⁵ cells per well in chamber slides (154534PAK, Thermo Fisher Scientific) and cultured overnight in a CO₂ incubator. Then, each of the cells was treated with doxorubicin (25 μM) and mitoxantrone (25 μM), which are anticancer drugs, to induce calreticulin on the surface thereof, treated with gemcitabine (15 μM) as a control group, and cultured for 4 hours, washed with PBS, and reacted with 3% paraformaldehyde for 10 minutes to fix the cells. Then, a block buffer (3% BSA in PBS) was treated for 1 hour to prevent the hard-to-bind antibody, and the CRT-monobody (10 μg/mL) was treated in each well and reacted for 1 hour to induce binding to calreticulin. […] In addition, Alexa 555 conjugated WGA-555 (1:2000, 3% BSA in PBS) was treated in order to distinguish cell membranes, DAPI-Glod-antifade was treated, and mounting was performed, and the prepared slides were refrigerated under dark conditions.

[4] = target: T2, calreticulin (CRT) exposed on the cell …; assay: flow cytometry, mitoxantrone- or doxorubicin-treated Hela and MDA-MB-231 cells, 5 µg/mL, anti-His tag detection
Excerpt: as §1, §2

Binder | binding result [1] | other results
B1 | binds | –
B2 | – | binding result [2]: binds; binding result [3]: binds
B3 | – | binding result [2]: binds; binding result [4]: binds
B4 | binds | –
B5 | binds | –
B6 | binds | –
B7 | binds | –
B8 | binds | –
